Earlier results on one substance are cited in paper PMC4963854, “Mapping Protein–Protein Interactions of the Resistance-Related Bacterial Zeta Toxin–Epsilon Antitoxin Complex (ε2ζ2) with High Affinity Peptide Ligands Using Fluorescence Polarization” (Toxins, 2016).

For this series, the target named is Zeta toxin (Streptococcus pyogenes) (UniProt Q54944).
Chain of Zeta toxin (Streptococcus pyogenes) (Q54944 2-287): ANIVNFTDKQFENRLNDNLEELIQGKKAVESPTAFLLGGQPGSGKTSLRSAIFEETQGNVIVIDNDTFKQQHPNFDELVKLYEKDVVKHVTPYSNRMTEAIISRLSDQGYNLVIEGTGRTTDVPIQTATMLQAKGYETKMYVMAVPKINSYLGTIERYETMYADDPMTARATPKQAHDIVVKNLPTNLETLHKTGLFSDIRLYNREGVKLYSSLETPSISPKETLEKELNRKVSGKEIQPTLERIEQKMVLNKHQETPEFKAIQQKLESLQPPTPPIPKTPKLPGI

Chain of Epsilon antitoxin (Q57231 2-90): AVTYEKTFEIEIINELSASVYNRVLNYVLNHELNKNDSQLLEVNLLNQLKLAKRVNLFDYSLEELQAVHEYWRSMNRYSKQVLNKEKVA

By Kd is commonly meant the constant that tells how readily two partners part at equilibrium. Take Epsilon antitoxin (from UniProt Q57231): the Kd is 1000 nM.
